From patent publication US20150239980A1 (NEOTOPE BOSCIENCES, published 2015)

How the values were obtained:
recombinant hMCAM-His [1] = target: T1, recombinant hMCAM-His (human, UniProt P43121 24-559); assay: summary of ForteBio and competitive ELISA on hMCAM-His; vs rodent 2120
T1 construct: not shown: His tag
T1 chain: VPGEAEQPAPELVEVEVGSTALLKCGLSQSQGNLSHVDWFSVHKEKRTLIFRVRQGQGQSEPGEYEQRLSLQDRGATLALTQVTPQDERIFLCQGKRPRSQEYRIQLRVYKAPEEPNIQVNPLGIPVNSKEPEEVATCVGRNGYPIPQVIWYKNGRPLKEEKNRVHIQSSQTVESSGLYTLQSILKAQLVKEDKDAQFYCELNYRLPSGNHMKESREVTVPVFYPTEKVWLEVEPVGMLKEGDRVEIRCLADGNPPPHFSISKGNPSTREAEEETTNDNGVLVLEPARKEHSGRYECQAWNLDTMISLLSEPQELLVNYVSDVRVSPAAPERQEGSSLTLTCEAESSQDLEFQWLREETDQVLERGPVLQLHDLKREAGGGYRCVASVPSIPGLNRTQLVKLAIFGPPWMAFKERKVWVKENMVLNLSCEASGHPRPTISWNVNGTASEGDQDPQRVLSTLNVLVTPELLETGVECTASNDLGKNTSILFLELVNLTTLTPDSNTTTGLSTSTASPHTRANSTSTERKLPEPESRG
Protocol: (§1) ELISA plates were coated with recombinant hMCAM-His, and blocked with casein buffer to prevent non-specific binding. Biotinylated rodent or chimeric antibody was added at a subsaturating concentration, in the presence or absence of 3× increasing concentrations of unlabeled competitor (humanized antibody, rodent, or chimeric). After washing to remove unbound antibody, streptavidin HRP was added to allow detection of the biotinylated antibody. The ELISA was developed with TMB substrate and the OD450 was measured. The IC50 of the unlabeled competitor was determined using the GraphPad Prism5 software.
(§2) The affinities were measured using the ForteBio Octet Red. Anti-human Fc sensors were used to capture the humanized antibodies, and several concentrations of hMCAMHis analyte were used to determine the affinity using a 1:1 fitting model.

[2] = target: T2, human MCAM (melanoma cell adhesion molecule) expressed on transfected CHO cells (human, UniProt P43121 24-646); assay: summary of laminin blocking assay on hMCAM CHO cells, competitor laminin 411; vs rodent 2120
T2 construct: also called hMCAM; CD146
T2 chain: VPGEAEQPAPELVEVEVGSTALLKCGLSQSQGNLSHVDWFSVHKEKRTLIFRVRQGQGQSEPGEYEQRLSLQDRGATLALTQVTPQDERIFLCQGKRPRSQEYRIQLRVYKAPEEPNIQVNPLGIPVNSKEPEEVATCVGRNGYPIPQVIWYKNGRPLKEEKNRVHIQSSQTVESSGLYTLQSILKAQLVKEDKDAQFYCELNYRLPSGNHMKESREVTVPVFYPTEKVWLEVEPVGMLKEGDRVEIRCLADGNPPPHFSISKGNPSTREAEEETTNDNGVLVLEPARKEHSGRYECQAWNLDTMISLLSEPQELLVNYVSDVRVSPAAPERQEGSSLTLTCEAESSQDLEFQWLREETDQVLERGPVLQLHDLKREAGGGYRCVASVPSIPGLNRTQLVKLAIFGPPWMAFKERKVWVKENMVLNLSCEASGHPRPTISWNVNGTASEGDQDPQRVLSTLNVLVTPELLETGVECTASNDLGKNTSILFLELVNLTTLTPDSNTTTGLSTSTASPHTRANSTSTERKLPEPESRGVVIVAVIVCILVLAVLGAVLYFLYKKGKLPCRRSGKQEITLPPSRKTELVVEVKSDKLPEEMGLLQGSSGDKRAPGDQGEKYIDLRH
Protocol: (§3) Following incubation for 30-45 minutes, the cells were washed and anti-laminin conjugated to AF650 (NovusBio) was added to detect the bound laminin. The cells were run on a flow cytometer to measure the laminin binding signal.

[3] = target: T2, human MCAM (melanoma cell adhesion …); assay: laminin/FACS blocking assay, % inhibition of laminin 411 binding to hMCAM-expressing CHO cells against antibody concentration; blocked ligand: laminin 411
Protocol: as §3

[4] = target: T2, human MCAM (melanoma cell adhesion …); assay: laminin/FACS on hMCAM CHO cells, competitor laminin 411; Expt#2; vs rodent 2120
Protocol: as §3

recombinant hMCAM-His [5] = target: T1, recombinant hMCAM-His; assay: ForteBio Octet Red, hMCAM-His analyte; Forte column 1; vs rodent 2120
Protocol: as §2

recombinant hMCAM-His [6] = target: T1, recombinant hMCAM-His; assay: competitive ELISA on hMCAM-His, competitor biotinylated rodent or chimeric 2120; vs rodent 2120
Protocol: as §1

[7] = target: T2, human MCAM (melanoma cell adhesion …); assay: laminin/FACS on hMCAM CHO cells, competitor laminin 411; Expt#1; vs rodent 2120
Protocol: as §3

recombinant hMCAM-His [8] = target: T1, recombinant hMCAM-His; assay: ForteBio Octet Red, hMCAM-His analyte; Forte column 2; vs rodent 2120
Protocol: as §2

[9] = target: T3, Recombinant human laminin-α4 (R&D systems) (human, UniProt Q16363-2 826-1816); assay: SPR, Biacore T200, Fc-tagged MCAM IgG1-2A captured by anti-Fc, laminin-α4 as analyte, 1:1 model
T3 construct: also called laminin α-4 chain
T3 sequence (looked up): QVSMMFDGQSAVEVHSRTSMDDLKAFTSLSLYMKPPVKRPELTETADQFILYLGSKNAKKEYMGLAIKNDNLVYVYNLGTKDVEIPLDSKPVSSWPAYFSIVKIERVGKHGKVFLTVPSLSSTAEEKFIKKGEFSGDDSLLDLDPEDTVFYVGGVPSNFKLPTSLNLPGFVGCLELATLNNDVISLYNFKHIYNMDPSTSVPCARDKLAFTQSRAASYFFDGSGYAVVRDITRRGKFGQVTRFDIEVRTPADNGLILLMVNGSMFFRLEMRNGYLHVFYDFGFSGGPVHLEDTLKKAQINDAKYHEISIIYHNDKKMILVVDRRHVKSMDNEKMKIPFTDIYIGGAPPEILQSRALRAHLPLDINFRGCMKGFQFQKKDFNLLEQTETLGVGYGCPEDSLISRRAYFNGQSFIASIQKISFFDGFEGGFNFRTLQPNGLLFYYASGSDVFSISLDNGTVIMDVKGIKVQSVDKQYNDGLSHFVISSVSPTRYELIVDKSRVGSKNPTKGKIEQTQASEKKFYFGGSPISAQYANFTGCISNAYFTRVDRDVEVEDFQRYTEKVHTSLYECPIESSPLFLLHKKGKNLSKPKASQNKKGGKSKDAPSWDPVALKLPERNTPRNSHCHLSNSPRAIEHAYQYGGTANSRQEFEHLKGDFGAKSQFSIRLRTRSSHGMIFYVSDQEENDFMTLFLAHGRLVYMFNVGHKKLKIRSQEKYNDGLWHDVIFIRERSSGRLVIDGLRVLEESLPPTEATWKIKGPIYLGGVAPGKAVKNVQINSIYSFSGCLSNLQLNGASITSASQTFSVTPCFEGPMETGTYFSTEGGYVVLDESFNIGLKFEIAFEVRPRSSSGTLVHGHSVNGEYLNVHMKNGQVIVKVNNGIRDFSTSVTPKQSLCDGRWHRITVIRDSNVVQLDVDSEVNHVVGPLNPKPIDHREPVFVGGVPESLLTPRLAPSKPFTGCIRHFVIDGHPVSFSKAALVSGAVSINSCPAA
Protocol: (§4) The binding affinity of the human laminin-α4 to human MCAM IgG1-2A was measured by Surface Plasmon Resonance on a Biacore T200 machine. Human Fc-specific F(ab′)₂ IgG (Jackson Laboratories) was immobilized on a CM5 chip using amine coupling. The four flow cells of the CM5 chips dextran surface are activated by a 7 min injection of freshly prepared 1:1 50 mM NHS: EDC at a flow rate of 5 μl/min. 70 μl IgG solution (pH 4.5) was injected for 3 min to a density of up to 3 000 RU. The coupling is then blocked by a 7 min injection of 1M ethanolamine to deactivate residual reactive sites. Recombinant human Fc-tagged MCAM IgG1-2A in degassed and filtered HBS-P buffer containing 12 mg/ml BSA and 12 mg/ml carboxy-methylated dextran sodium salt was captured by anti-Fc IgG to a capture level 1560 RU. Recombinant human Fc-tagged MCAM IgG1-2A was centrifuged at 14 000 rpm for 5 min at 4° C. before injection for 20 min at a flow rate of 5 μl/min over the anti-Fc IgG containing surface. Flow cell 1 was left free of IgG to serve as a control surface. One flow cell was used to capture recombinant human IgG1 Fc (R&D systems) to serve as a negative control. […] Buffer injections served as negative control. Data evaluation: Data from the buffer injections and the control surface were subtracted to remove artifacts. […]

[10] = target: T4, recombinant human laminin 411 (Biolamina) (human, UniProt Q16363 25-1823; P07942 22-1786; P11047 34-1609); assay: SPR, Biacore T200, Fc-tagged MCAM IgG1-2A captured by anti-Fc, laminin 411 as analyte, steady state
T4 construct: also called laminin 8
Protocol: as §4

[11] = target: T5, recombinant human laminin 511 (Biolamina) (human, UniProt O15230 36-3695; P07942 22-1786; P11047 34-1609); assay: SPR, Biacore T200
T5 construct: negative control; also called laminin 10 (α5β1γ1)

[12] = target: T2, human MCAM (melanoma cell adhesion …); assay: laminin/FACS on hMCAM CHO cells, competitor laminin 411; Expt#2; seems to serve as the reference of the 2107 family in this column
recombinant hMCAM-His [13] = target: T1, recombinant hMCAM-His; assay: competitive ELISA on hMCAM-His, competitor biotinylated rodent or chimeric 2107; Expt. #1; vs rodent 2107
How it was run: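 Plates coated with recombinant hMCAM-His and casein-blocked; biotinylated rodent or chimeric antibody at subsaturating level competed by 3× serial concentrations of unlabeled humanized, rodent or chimeric antibody. Bound biotinylated antibody detected with streptavidin-HRP/TMB at OD450; competitor IC50 fitted.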

recombinant hMCAM-His [14] = target: T1, recombinant hMCAM-His; assay: competitive ELISA on hMCAM-His, competitor biotinylated rodent or chimeric 2107; Expt. #2; vs rodent 2107
Protocol: as §1

T4 sequence (P07942 22-1786, chain 2 of 2): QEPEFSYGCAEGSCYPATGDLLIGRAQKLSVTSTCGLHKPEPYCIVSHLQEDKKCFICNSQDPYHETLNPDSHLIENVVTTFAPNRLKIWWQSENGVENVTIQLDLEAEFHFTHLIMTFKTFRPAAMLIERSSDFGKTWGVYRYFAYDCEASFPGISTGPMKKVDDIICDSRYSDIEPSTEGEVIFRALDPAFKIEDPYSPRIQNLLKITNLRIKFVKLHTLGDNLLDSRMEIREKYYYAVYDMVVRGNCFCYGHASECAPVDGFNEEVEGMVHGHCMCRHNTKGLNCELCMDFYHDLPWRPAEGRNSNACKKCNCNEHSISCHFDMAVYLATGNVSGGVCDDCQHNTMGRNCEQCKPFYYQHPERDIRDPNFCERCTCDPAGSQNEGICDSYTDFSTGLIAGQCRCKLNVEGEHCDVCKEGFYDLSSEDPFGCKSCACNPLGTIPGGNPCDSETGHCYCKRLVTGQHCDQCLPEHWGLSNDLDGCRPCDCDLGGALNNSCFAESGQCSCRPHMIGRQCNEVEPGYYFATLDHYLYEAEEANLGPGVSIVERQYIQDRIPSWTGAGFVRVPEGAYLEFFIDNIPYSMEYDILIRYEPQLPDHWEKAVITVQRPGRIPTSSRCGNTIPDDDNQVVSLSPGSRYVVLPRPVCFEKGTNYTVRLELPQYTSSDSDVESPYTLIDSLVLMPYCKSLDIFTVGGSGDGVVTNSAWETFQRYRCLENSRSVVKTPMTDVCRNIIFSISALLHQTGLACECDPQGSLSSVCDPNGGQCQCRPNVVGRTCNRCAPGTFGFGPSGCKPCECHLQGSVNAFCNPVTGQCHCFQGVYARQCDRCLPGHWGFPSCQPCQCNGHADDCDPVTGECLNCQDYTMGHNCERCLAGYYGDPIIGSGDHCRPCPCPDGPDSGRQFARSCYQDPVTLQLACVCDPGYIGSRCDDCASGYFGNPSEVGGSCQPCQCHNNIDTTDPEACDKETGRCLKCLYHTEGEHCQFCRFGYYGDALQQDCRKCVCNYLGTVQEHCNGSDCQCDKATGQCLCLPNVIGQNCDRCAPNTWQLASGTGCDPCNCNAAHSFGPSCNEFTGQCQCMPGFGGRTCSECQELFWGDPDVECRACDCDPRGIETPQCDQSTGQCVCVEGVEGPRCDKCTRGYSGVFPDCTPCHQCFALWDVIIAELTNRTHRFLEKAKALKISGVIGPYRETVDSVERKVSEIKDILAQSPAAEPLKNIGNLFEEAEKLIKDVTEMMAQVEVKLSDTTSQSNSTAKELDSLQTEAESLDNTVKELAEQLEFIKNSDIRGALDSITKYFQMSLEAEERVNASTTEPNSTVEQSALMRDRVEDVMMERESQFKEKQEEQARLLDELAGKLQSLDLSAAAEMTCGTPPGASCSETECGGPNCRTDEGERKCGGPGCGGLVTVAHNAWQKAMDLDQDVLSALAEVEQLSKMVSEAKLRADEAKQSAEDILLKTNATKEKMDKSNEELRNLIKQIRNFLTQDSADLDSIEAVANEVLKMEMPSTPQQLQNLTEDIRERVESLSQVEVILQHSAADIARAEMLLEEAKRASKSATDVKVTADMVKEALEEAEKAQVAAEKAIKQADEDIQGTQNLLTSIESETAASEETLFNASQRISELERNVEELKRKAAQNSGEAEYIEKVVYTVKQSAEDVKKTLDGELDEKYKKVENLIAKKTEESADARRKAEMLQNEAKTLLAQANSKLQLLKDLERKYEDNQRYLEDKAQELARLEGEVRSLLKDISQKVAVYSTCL
T4 sequence (P11047 34-1609, chain 3 of 2): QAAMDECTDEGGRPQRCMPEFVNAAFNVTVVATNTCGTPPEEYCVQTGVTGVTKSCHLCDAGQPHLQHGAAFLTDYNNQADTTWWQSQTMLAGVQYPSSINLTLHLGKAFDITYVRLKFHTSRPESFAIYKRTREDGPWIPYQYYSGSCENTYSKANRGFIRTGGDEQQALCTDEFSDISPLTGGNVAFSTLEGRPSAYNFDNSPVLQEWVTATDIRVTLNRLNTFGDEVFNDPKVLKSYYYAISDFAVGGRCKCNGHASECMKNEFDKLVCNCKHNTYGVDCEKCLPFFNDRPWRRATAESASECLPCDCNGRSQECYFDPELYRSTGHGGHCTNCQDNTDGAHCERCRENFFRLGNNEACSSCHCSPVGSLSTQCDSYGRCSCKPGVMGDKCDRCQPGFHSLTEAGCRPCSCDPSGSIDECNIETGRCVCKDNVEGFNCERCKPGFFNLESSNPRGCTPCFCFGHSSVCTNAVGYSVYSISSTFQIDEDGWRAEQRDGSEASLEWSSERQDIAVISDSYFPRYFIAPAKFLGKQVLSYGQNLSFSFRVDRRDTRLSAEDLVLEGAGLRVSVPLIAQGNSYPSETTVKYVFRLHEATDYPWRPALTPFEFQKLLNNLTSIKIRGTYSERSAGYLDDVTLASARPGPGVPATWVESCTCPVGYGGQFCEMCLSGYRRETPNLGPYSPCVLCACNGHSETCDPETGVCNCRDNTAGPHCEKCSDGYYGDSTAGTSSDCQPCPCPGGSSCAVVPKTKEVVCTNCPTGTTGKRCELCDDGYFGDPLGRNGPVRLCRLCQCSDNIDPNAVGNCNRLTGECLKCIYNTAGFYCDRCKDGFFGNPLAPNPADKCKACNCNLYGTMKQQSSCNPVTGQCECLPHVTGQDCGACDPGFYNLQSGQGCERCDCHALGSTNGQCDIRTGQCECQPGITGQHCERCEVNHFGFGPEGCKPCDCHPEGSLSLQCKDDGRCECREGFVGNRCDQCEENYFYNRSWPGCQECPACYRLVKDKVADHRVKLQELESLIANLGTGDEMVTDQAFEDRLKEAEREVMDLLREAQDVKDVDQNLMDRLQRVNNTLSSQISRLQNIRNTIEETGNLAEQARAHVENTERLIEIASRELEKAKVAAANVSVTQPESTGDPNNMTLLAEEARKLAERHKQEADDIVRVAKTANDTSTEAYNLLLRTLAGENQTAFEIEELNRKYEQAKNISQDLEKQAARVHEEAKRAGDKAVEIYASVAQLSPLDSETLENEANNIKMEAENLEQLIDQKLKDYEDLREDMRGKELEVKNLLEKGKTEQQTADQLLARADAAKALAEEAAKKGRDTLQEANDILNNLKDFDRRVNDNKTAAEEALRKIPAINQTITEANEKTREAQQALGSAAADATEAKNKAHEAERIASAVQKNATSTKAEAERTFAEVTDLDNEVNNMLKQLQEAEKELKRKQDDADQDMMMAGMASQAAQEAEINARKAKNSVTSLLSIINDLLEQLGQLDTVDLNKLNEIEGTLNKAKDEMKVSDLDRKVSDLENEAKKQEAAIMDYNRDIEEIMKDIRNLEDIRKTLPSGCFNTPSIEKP

B1: h2120_VH5 + h2120_VL3 (antibody, human IgG1, V domains shown)
VH: QVTLKESGPVLVKPTETLTLTCTVSGFSLTSNAVSWVRQPPGKALEWIAAISSGGTTYYNSAFKSRLTISRDTSKSQVVLTMTNMDPVDTATYYCARRYGYGWYFDFWGQGTLVTVSS
VL: DIQMTQSPSSLSASVGDRVTINCKASQNIYNSLAWYQQKPGKAPKVLIFNANSLQTGIPSRFSGSGSGTDFTLTISSLQPEDFATYYCQQFYSGYTFGQGTKLEIK
notes: also called h2120VH5VL3; VH5VL3
For B1, the “fold reduction in affinity compared to the rodent” value (recombinant hMCAM-His [1]) was less than 2 fold, the “fold reduction in potency compared to the rodent” value [2] was less than 2 fold and the “IC50 (read off the curve)” value [3] was roughly 0.6 µg/mL. The “fold over rodent (blocking, laminin/FACS)” value [4] was 1.5 fold, the “fold over rodent (Forte affinity)” value (recombinant hMCAM-His [5]) was 1.1 fold and the “fold over rodent (competitive ELISA)” value (recombinant hMCAM-His [6]) was 2.4 fold. For the same binder, the “fold over rodent (blocking, laminin/FACS)” value [7] was 1.2 fold and the “fold over rodent (Forte affinity)” value (recombinant hMCAM-His [8]) was 1.2 fold.

B2: Recombinant human Fc-tagged MCAM IgG1-2A (human MCAM domains 1 and 2, amino acids 19-242) (Fc fusion)
chain: PRVAGVPGEAEQPAPELVEVEVGSTALLKCGLSQSQGNLSHVDWFSVHKEKRTLIFRVRQGQGQSEPGEYEQRLSLQDRGATLALTQVTPQDERIFLCQGKRPRSQEYRIQLRVYKAPEEPNIQVNPLGIPVNSKEPEEVATCVGRNGYPIPQVIWYKNGRPLKEEKNRVHIQSSQTVESSGLYTLQSILKAQLVKEDKDAQFYCELNYRLPSGNHMKESREVT
notes: also called human MCAM IgG1-2A; MCAM Fc domains 1 and 2; not shown: human Fc tag
With B2 the Kd [9] was 60 nM, the Kd [10] was 66 nM and the binding result [11] was “no binding (tested: 5-175 nM)”.

B3: chimeric 2107 (antibody, V domains shown)
VH: QVQLKESGPGLVQSSQTLSLTCTVSGFSLTSNGVSWVRQPPGKGLEWIAAISSGGSTYYNSAFKSRLSISRNTSKSQVLLKMNSLQTEDTGMYFCARHRPFYFDYWGQGVMVTVSS
VL: DIQVTQSPSLLSASVGDRVTLNCKGSQNIYKSLAWFRLKRGEAPKLLIYDANSLQTGIPSRFSGSGSGTDFTLTITSLQPEDVATYFCQQYYSGYTFGAGTKLELK
In the case of B3, the “fold over rodent (blocking, laminin/FACS)” value [12] is reported as 1 fold, the “fold over rodent (competitive ELISA)” value (recombinant hMCAM-His [13]) is reported as 0.68 fold and the “fold over rodent (competitive ELISA)” value (recombinant hMCAM-His [14]) is reported as 1.01 fold.
